Measurements: US20040109861A1 (MYRIAD GENETICS, published 2004)

Molecular target: T1, myc-tagged Tsg101 (residues 1-207) (human, UniProt Q99816 1-207)
T1 construct: range 1-207; Used as Drosophila S2 cell lysate, not purified; The tag is placed N-terminal from the name myc-Tsg101; also called myc-Tsg101(1-207); myc-Tsg101 (1-207)
T1 sequence: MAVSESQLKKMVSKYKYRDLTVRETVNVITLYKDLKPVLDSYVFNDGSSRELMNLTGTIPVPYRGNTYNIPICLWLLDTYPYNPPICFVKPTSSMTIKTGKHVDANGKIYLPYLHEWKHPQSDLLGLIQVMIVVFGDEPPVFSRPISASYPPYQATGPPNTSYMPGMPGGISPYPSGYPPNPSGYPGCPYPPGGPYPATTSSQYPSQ
Assay: plate competition assay, competitor of coated GST-p6 for myc-Tsg101(1-207)

B1: p6(1-14) peptide (GAGp6 peptide containing the first 14 amino acid residues) (peptide)
peptide: LQSRPEPTAPPEES
notes: also called first 14 amino acid residues of HIV GAGp6
  binding result: binds
